In US20120316071A1 (published 2012):

What was measured:
[1] = target: T1, Recombinant Human DLL4 (delta-like protein 4) (human, UniProt Q9NR61 27-524); assay: ELISA on plate-coated DLL4, 100 nM Fab
T1 construct: Bought recombinant protein (R&D Systems Cat#1506-D4/CF); also called rHuman DLL4

[2] = target: T1, Recombinant Human DLL4 (delta-like …); assay: ECL 96-well plate assay on immobilised DLL4, 10 nM Fab
[3] = target: T2, Recombinant Human DLL4 (R&D Systems Cat#1506-D4/CF) (human, UniProt Q9NR61 27-524); assay: ECL multispot (MSD) binding assay, DLL4 spotted on plate, purified Fab in solution; Fab concentration not given
T2 construct: Bought recombinant protein; also called delta-like protein 4; rHuman DLL4

[4] = target: T2, Recombinant Human DLL4 (R&D Systems …); assay: ECL multispot (MSD) binding assay, DLL4 signal over blank spot; Fab concentration not given

Binder | ELISA signal [1] | ECL signal [2] | ECL signal [3] | Signal/Blank [4]
Fab VH1-46_IGHD6-6*01_IGHJ1*01 S102A/S103P/S104F/H111F N52V & L6_IGKJ1*01 (Fab, V domains shown, Fab from E. coli; CH1 (with His and Flag tags) and kappa CL come from the expression plasmids; also called APFF N52V) VH: QVQLVQSGAEVKKPGASVKVSCKASGYTFTSYYMHWVRQAPGQGLEWMGIIVPSGGSTSYAQKFQGRVTMTRDTSTSTVYMELSSLRSEDTAVYYCAREEYAPFSAEYFQFWGQGTLVTVSS VL: not shown | 0.24 | 64700 |  | 
Fab VH1-46_IGHD6-6*01_IGHJ1*01 S102A/S103P/S104F/H111F (APFF) & L6_IGKJ1*01 S28R (Fab, V domains shown, Fab expressed in E. coli: VH joined to CH1 (Plasmid A, His6 and Flag tags), VL joined to kappa CL (Plasmid C); also called APFF S28R) VH: QVQLVQSGAEVKKPGASVKVSCKASGYTFTSYYMHWVRQAPGQGLEWMGIINPSGGSTSYAQKFQGRVTMTRDTSTSTVYMELSSLRSEDTAVYYCAREEYAPFSAEYFQFWGQGTLVTVSS VL: EIVLTQSPATLSLSPGERATLSCRASQRVSSYLAWYQQKPGQAPRLLIYDASNRATGIPARFSGSGSGTDFTLTISSLEPEDFAVYYCQQRSNWPPWTFGQGTKVEIKR |  |  | 110000 | 246
Fab VH1-46_IGHD6-6*01_IGHJ1*01 S102A/S103P/S104F/H111F (APFF) & L6_IGKJ1*01 S28E (Fab, V domains shown, Fab expressed in E. coli: VH joined to CH1 (Plasmid A, His6 and Flag tags), VL joined to kappa CL (Plasmid C); also called APFF S28E) VH: QVQLVQSGAEVKKPGASVKVSCKASGYTFTSYYMHWVRQAPGQGLEWMGIINPSGGSTSYAQKFQGRVTMTRDTSTSTVYMELSSLRSEDTAVYYCAREEYAPFSAEYFQFWGQGTLVTVSS VL: EIVLTQSPATLSLSPGERATLSCRASQEVSSYLAWYQQKPGQAPRLLIYDASNRATGIPARFSGSGSGTDFTLTISSLEPEDFAVYYCQQRSNWPPWTFGQGTKVEIKR |  |  | 184000 | 439
Fab VH1-46_IGHD6-6*01_IGHJ1*01 S102A/S103P/S104F/H111F (APFF) & L6_IGKJ1*01 S28I (Fab, V domains shown, Fab expressed in E. coli: VH joined to CH1 (Plasmid A, His6 and Flag tags), VL joined to kappa CL (Plasmid C); also called APFF S28I) VH: QVQLVQSGAEVKKPGASVKVSCKASGYTFTSYYMHWVRQAPGQGLEWMGIINPSGGSTSYAQKFQGRVTMTRDTSTSTVYMELSSLRSEDTAVYYCAREEYAPFSAEYFQFWGQGTLVTVSS VL: EIVLTQSPATLSLSPGERATLSCRASQIVSSYLAWYQQKPGQAPRLLIYDASNRATGIPARFSGSGSGTDFTLTISSLEPEDFAVYYCQQRSNWPPWTFGQGTKVEIKR |  |  | 106000 | 309
Fab VH1-46_IGHD6-6*01_IGHJ1*01 S102A/S103P/S104F/H111F (APFF) & L6_IGKJ1*01 S28N (Fab, V domains shown, Fab expressed in E. coli: VH joined to CH1 (Plasmid A, His6 and Flag tags), VL joined to kappa CL (Plasmid C); also called APFF S28N) VH: QVQLVQSGAEVKKPGASVKVSCKASGYTFTSYYMHWVRQAPGQGLEWMGIINPSGGSTSYAQKFQGRVTMTRDTSTSTVYMELSSLRSEDTAVYYCAREEYAPFSAEYFQFWGQGTLVTVSS VL: EIVLTQSPATLSLSPGERATLSCRASQNVSSYLAWYQQKPGQAPRLLIYDASNRATGIPARFSGSGSGTDFTLTISSLEPEDFAVYYCQQRSNWPPWTFGQGTKVEIKR |  |  | 204000 | 778
Fab VH1-46_IGHD6-6*01_IGHJ1*01 S102A/S103P/S104F/H111F (APFF) & L6_IGKJ1*01 S30D (Fab, V domains shown, Fab expressed in E. coli: VH joined to CH1 (Plasmid A, His6 and Flag tags), VL joined to kappa CL (Plasmid C); also called APFF S30D) VH: QVQLVQSGAEVKKPGASVKVSCKASGYTFTSYYMHWVRQAPGQGLEWMGIINPSGGSTSYAQKFQGRVTMTRDTSTSTVYMELSSLRSEDTAVYYCAREEYAPFSAEYFQFWGQGTLVTVSS VL: EIVLTQSPATLSLSPGERATLSCRASQSVDSYLAWYQQKPGQAPRLLIYDASNRATGIPARFSGSGSGTDFTLTISSLEPEDFAVYYCQQRSNWPPWTFGQGTKVEIKR |  |  | 225000 | 568
Fab VH1-46_IGHD6-6*01_IGHJ1*01 S102A/S103P/S104F/H111F (APFF) & L6_IGKJ1*01 S28P (Fab, V domains shown, Fab expressed in E. coli: VH joined to CH1 (Plasmid A, His6 and Flag tags), VL joined to kappa CL (Plasmid C); also called APFF S28P) VH: QVQLVQSGAEVKKPGASVKVSCKASGYTFTSYYMHWVRQAPGQGLEWMGIINPSGGSTSYAQKFQGRVTMTRDTSTSTVYMELSSLRSEDTAVYYCAREEYAPFSAEYFQFWGQGTLVTVSS VL: EIVLTQSPATLSLSPGERATLSCRASQPVSSYLAWYQQKPGQAPRLLIYDASNRATGIPARFSGSGSGTDFTLTISSLEPEDFAVYYCQQRSNWPPWTFGQGTKVEIKR |  |  | 178000 | 454
Fab VH1-46_IGHD6-6*01_IGHJ1*01 S102A/S103P/S104F/H111F (APFF) & L6_IGKJ1*01 S28A (Fab, V domains shown, Fab expressed in E. coli: VH joined to CH1 (Plasmid A, His6 and Flag tags), VL joined to kappa CL (Plasmid C); also called APFF S28A) VH: QVQLVQSGAEVKKPGASVKVSCKASGYTFTSYYMHWVRQAPGQGLEWMGIINPSGGSTSYAQKFQGRVTMTRDTSTSTVYMELSSLRSEDTAVYYCAREEYAPFSAEYFQFWGQGTLVTVSS VL: EIVLTQSPATLSLSPGERATLSCRASQAVSSYLAWYQQKPGQAPRLLIYDASNRATGIPARFSGSGSGTDFTLTISSLEPEDFAVYYCQQRSNWPPWTFGQGTKVEIKR |  |  | 157000 | 472
Fab VH1-46_IGHD6-6*01_IGHJ1*01 S102A/S103P/S104F/H111F (APFF) & L6_IGKJ1*01 S30C (Fab, V domains shown, Fab expressed in E. coli: VH joined to CH1 (Plasmid A, His6 and Flag tags), VL joined to kappa CL (Plasmid C); also called APFF S30C) VH: QVQLVQSGAEVKKPGASVKVSCKASGYTFTSYYMHWVRQAPGQGLEWMGIINPSGGSTSYAQKFQGRVTMTRDTSTSTVYMELSSLRSEDTAVYYCAREEYAPFSAEYFQFWGQGTLVTVSS VL: EIVLTQSPATLSLSPGERATLSCRASQSVCSYLAWYQQKPGQAPRLLIYDASNRATGIPARFSGSGSGTDFTLTISSLEPEDFAVYYCQQRSNWPPWTFGQGTKVEIKR |  |  | 129000 | 141
Fab VH1-46_IGHD6-6*01_IGHJ1*01 S102A/S103P/S104F/H111F N52Y & L6_IGKJ1*01 (Fab, V domains shown, Fab from E. coli; CH1 (with His and Flag tags) and kappa CL come from the expression plasmids; also called APFF N52Y) VH: QVQLVQSGAEVKKPGASVKVSCKASGYTFTSYYMHWVRQAPGQGLEWMGIIYPSGGSTSYAQKFQGRVTMTRDTSTSTVYMELSSLRSEDTAVYYCAREEYAPFSAEYFQFWGQGTLVTVSS VL: not shown | 0.01 | 24500 |  | 
